The source of these data is publication PMC7866087, “Evaluation of Computationally Designed Peptides against TWEAK, a Cytokine of the Tumour Necrosis Factor Ligand Family” (International Journal of Molecular Sciences, 2021).

The target of one test is T1, human His6-TWEAK protein (Homo sapiens, UniProt O43508).
T1 construct: purchased R&D Systems
T1 sequence (O43508 97-249 limits assumed): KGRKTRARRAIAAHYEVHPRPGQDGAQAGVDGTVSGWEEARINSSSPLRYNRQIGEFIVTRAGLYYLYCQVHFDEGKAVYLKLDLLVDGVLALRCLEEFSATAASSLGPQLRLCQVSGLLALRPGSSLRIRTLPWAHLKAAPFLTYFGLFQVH
As to the kind of experiment: SPR binding of peptides to immobilized His6-TWEAK. The note with it: for binding affinity for immobilized TWEAK: negative controls, global curve fit not attempted. The source says: SPR biosensor interaction analysis, a label-free screening approach, was used for real-time monitoring of the kinetics and affinity of peptide hits to TWEAK previously identified by cell-based screening. Peptides from pools 1 and 5 were selected both as positive (49, 30, 35 and 43) and negative hits (1 and 42). For our purposes, TWEAK was chosen as ligand, while peptides were chosen as analytes and passed across ligand-derivatized surface. Nitrilotriacetic acid-coated sensor chips (NTA chip) and a coupling approach that results in the capture of a His6-protein in a non-random orientation by the His6 epitope prior to direct free amine-based covalent coupling was used for histidine-tagged TWEAK immobilization.
After chip validation, peptides selected on our cell-based microarray screening were tested.
For each titration, a zero-analyte surface as a control was subtracted from test sensorgram as well as non-specific binding to the blank flow cell without protein; and the chip surface was regenerated in order to remove any remaining analyte. The black curves show the experimental data, while the overlaid red lines represent a global fit of the entire data set to a 1:1 Langmurian interaction model. The fitting process provided both kinetic association and dissociation rate constants (Ka and Kd), as well as equilibrium dissociation constant (KD) values indicated in Figure 6.
Binding assays were performed at 25 °C in a Biacore 3000 instrument (GE Healthcare, Uppsala, Sweden) using nitrilotriacetic (NTA) sensor chips (GE Healthcare) and HBS-EP (0.01 M HEPES pH 7.4, 0.15 M NaCl, 3 mM EDTA, 0.005 % v/v Surfactant P20) as running buffer. Histidine-tagged human TWEAK (His6-TWEAK) protein (R&D Systems, Minneapolis, MN, USA) was covalently immobilized on the sensor surface using a capture coupling method. Briefly, the NTA surface was first stabilized by injection of regeneration buffer (20 μL EDTA-containing running buffer at 20 μL/min) followed by Ni^2+ binding to the surface (40 μL of 500 μM NiCl2 in running buffer at 20 μL/min). The carboxymethyl dextran surface was then activated for primary amine coupling by injecting coupling solution (30 μL of a 1:1 N-hydroxysuccinimide (NHS)/1-ethyl-3-[3-(dimethylamino)-propyl]carbodiimide hydrochloride (EDC) mixture at 5 μL/min). His6-TWEAK protein in pH 7.4 running buffer was then injected over the surface (60 μL of 10 μg/mL His6-TWEAK at 5 μL/min). To block uncoupled primary amines on the sensor surface, ethanolamine was passed over the surface (35 μL 1M ethanolamine at 5 μL/min). Ligand surfaces were finally conditioned with a 20 µL injection of regeneration solution containing 350 mM EDTA at 20 μL/min. Immobilization levels ranged from 1500 to 7000 resonance units (RUimmob) to test different ligand densities. A blank flow cell on the chip was created by simple injection of 20 μL of regeneration buffer injected over the sensor surface.
Binding experiments using a monoclonal anti-TWEAK antibody (Abcam ref. 199405, Cambridge, UK) were run to ascertain adequate functionalization of the immobilized surface. Selected synthetic TWEAK-Fn14 inhibitory peptides at two-fold serial dilutions from 800 µM to 0 µM in running buffer were flown over the chip for 5 min at 35 µL/min. The dissociation phase was monitored for 10 min at the same flow rate and followed by a regeneration step with 10 µL of 18 mM NaOH. Specific binding responses for each channel were obtained by double referencing; subtracting non-specific binding to the blank flow cell plus an internal reference standard, namely buffer injection response. Each sample was run in triplicate. The experimental data were fitted to a 1:1 Langmuir binding model by the BIAevaluation software version 4.1 (GE Healthcare, Uppsala, Sweden).

Test [1] deals with HT29 cells, Fn14 gene expression. As to the kind of experiment: Fn14 gene expression with TWEAK, HT29 (RT-PCR). It is filed as cell-based, human. The following applies: HT29, TWEAK 25 ng/ml. Here is the method:
(§1) Figure 1 Characterization TWEAK-dependent/not dependent cells. (A) Representative images of Fn14 expression (pink) in BRV5, 435-P and HT29 cells labelled by immunofluorescence. The protein has similar expression in BRV5 and the positive control HT29 cells, and less expressed in 435-P. DAPI (blue) was used for nucleus identification. (B) RT-PCR analysis to quantify Fn14 gene expression of cells cultured in the presence (dark green) or absence (light green) of TWEAK (25 ng/mL) at 48 h. Up-regulation of Fn14 is observed only in HT29 and BRV5 cells. Bars and error bars represent the average and standard deviation as calculated from three replicates respectively. P values represented as: * - significant (Pvalue: 0.01 to 0.05) and **- very-significant (Pvalue: 0.001 to 0.01).
(§2) Since the transcriptional activation of Fn14 expression can be induced in cancer cells by the TWEAK-Fn14 interaction, either in a paracrine or autocrine manner, we investigated whether TWEAK transactivates Fn14 (TNFR2F12A) in BRV5 brain metastatic cells. We primed cells with TWEAK and analysed TNFR2F12A gene expression including in the analysis 435-Br1 cells, the first generation of brain metastatic cells BRV5.
Three different cell lines were used in this study: BRV5, MDA-MB 435 (435-P), and HT29. The BRV5 is a highly metastatic brain cell line, obtained in one of our laboratories by primary culture from a brain of a nude mouse inoculated with human 435-Br1 brain metastatic cells, as previously described and used as a model to test the peptides in cell cultures. […] The triple negative 435-P cell line is a useful human breast cancer model that expresses both epithelial and melanocytic markers, and was included as the parental cell from which 435-Br1 metastatic variant was initially originated (both cell lines kindly provided by Dr Fabra at IDIBELL Institute, Hospitalet de Llobregat, Spain). […]

Test [2] concerns 435-P cells, TNFR2F12A gene expression. Description: Fn14 gene expression with TWEAK, 435-P (RT-PCR). It is filed as cell-based, human. The note with it: for Normalized level of expression of Fn14 gene: TWEAK 25 ng/ml. Here is the method: as §1, §2
Three different cell lines were used in this study: BRV5, MDA-MB 435 (435-P), and HT29. The BRV5 is a highly metastatic brain cell line, obtained in one of our laboratories by primary culture from a brain of a nude mouse inoculated with human 435-Br1 brain metastatic cells, as previously described and used as a model to test the peptides in cell cultures. […] The triple negative 435-P cell line is a useful human breast cancer model that expresses both epithelial and melanocytic markers, and was included as the parental cell from which 435-Br1 metastatic variant was initially originated (both cell lines kindly provided by Dr Fabra at IDIBELL Institute, Hospitalet de Llobregat, Spain). Finally, HT29 human colon carcinoma cells obtained from the European Type Culture Collection (ECACC 91072201) were used as a positive control of TWEAK dependent Fn14 over-expressing cells to evaluate TWEAK-Fn14 axis of brain metastatic variants.

Setting [3] is: 25 °C, HBS-EP pH 7.4, Biacore 3000, NTA chip, 1:1 Langmuir global fit, representative of at least three independent experiments.

As for SWYDHMAGDSSY [Peptide 35], at human His6-TWEAK protein (setting [3]), the ka was 2.06 M⁻¹ s⁻¹ and the kd is 0.00285 s⁻¹.
Consider 42: YNGHVKDD [Peptide 42], for which the “binding affinity for immobilized TWEAK” value in the test with human His6-TWEAK protein is listed as “negligible binding affinity”.
As to 1: GNGTDDNSGTSY [Peptide 1], the “binding affinity for immobilized TWEAK” value in the test with human His6-TWEAK protein is on record as “negligible binding affinity”.

B1: tumour necrosis factor-like weak inducer of apoptosis (protein, UniProt O43508 94-249, looked up)
Tumor necrosis factor ligand …: SAPKGRKTRARRAIAAHYEVHPRPGQDGAQAGVDGTVSGWEEARINSSSPLRYNRQIGEFIVTRAGLYYLYCQVHFDEGKAVYLKLDLLVDGVLALRCLEEFSATAASSLGPQLRLCQVSGLLALRPGSSLRIRTLPWAHLKAAPFLTYFGLFQVH
As to B1, the “Normalized level of expression of Fn14 gene” value in test [1] (technical replicate 1) was determined as 0.1964; in test [1] (technical replicate 2) it was 0.2154; in test [1] (technical replicate 3), 0.2052; in test [2] (technical replicate 1), 0.1395; in test [2] (technical replicate 2), 0.1292; in test [2] (technical replicate 3), 0.1408. Also, the TNFR2F12A gene expression entry in test [2] (TWEAK 25 ng/mL, 48 h) is “decreased TNFR2F12A gene expression in 435-P cells with regard to controls (p = 0.0246)”.
